Test results taken from patent publication JP2005320353A (dated 2005).
Numbering of substitutions follows the chain as printed.

B1: ヒト型化#23-57-137-1抗体 (H鎖バージョン"a"、L鎖バージョン"j") (antibody, IgG1, V domains shown)
VH: QVQLVESGGGVVQPGRSLRLSCAASGFTFSSYGMSWVRQAPGKGLEWVATISSGGSYTYYPDSVKGRFTISRDNSKNTLYLQMNSLRAEDTAVYYCARQTTMTYFAYWGQGTLVTVSS
VL: QLVLTQSPSASASLGASVKLTCTLSSQHSTYTIEWYQQQPEKGPKYLMDLKQDGSHSTGDGIPDRFSGSSSGAERYLTISSLQSEDEADYYCGVGDTIKEQFVYVFGGGTKLTVLG
notes: Human Cγ1 (IgG1) and human lambda C region; Expressed in COS-7 cells; also called hMBC1HcDNA/pCOS1 + hMBC1Ljλ/pCOS1
B2: ヒト型化#23-57-137-1抗体 (H鎖バージョン"a"、L鎖バージョン"l") (antibody, IgG1, V domains shown)
VH: B1 VH
VL: B1 VL with L47V
notes: Human Cγ1 (IgG1) and human lambda C region; Expressed in COS-7 cells; also called hMBC1HcDNA/pCOS1 + hMBC1Llλ/pCOS1
B3: ヒト型化#23-57-137-1抗体 (H鎖バージョン"a"、L鎖バージョン"t") (antibody, IgG1, V domains shown)
VH: B1 VH
VL: B1 VL with K45R, L47V, Y91I
notes: Human Cγ1 (IgG1) and human lambda C region; Expressed in COS-7 cells; also called hMBC1HcDNA/pCOS1 + hMBC1Ltλ/pCOS1
B4: ヒト型化#23-57-137-1抗体 (H鎖バージョン"a"、L鎖バージョン"m") (antibody, IgG1, V domains shown)
VH: B1 VH
VL: B1 VL with K45R
notes: Human Cγ1 (IgG1) and human lambda C region; Expressed in COS-7 cells; also called hMBC1HcDNA/pCOS1 + hMBC1Lmλ/pCOS1
B5: ヒト型化#23-57-137-1抗体 (H鎖バージョン"a"、L鎖バージョン"o") (antibody, IgG1, V domains shown)
VH: B1 VH
VL: B1 VL with K45R, L47V
notes: Human Cγ1 (IgG1) and human lambda C region; Expressed in COS-7 cells; also called hMBC1HcDNA/pCOS1 + hMBC1Loλ/pCOS1
B6: ヒト型化#23-57-137-1抗体 (H鎖バージョン"a"、L鎖バージョン"q") (antibody, IgG1, V domains shown)
VH: B1 VH
VL: B1 VL with Y91I
notes: Human Cγ1 (IgG1) and human lambda C region; Expressed in COS-7 cells for the ELISA; also made in CHO cells; also called hMBC(q); hMBC1HcDNA + hMBC1Lqλ
B7: ヒト型化H鎖バージョン"a"とキメラL鎖を組み合わせた抗体 (antibody, V domains shown)
VH: B1 VH
VL: QLVLTQSSSASFSLGASAKLTCTLSSQHSTYTIEWYQQQPLKPPKYVMDLKQDGSHSTGDGIPDRFSGSSSGADRYLSISNIQPEDEAMYICGVGDTIKEQFVYVFGGGTKVTVLG
notes: Humanised H chain version a with human Cγ1; The chimeric L chain has the mouse V region

biological target: T1, ヒトPTHrP(1-34) (human); test: ELISA on plate-coated human PTHrP(1-34)
T1 construct: Synthetic peptide, bought (Peninsula; ペプチド研究所); Coated on the plate in the ELISA; also called human parathyroid hormone related peptide (1-34)

Row | Binder | binding result
1 | B1 | binds
2 | B2 | binds
3 | B3 | binds
4 | B4 | binds
5 | B5 | binds
6 | B6 | binds
7 | B7 | binds
